For 2 substances, fold decrease of the MAVS-TRAF3 co-precipitate results are on record in publication PMC5494602.

The target in this assay is Flag-TRAF3 (TNF receptor-associated factor 3, full length) (human (by the printed RefSeq NM_145725)) (UniProt Q13114). The experiment in a line: co-IP.
Chain of UniProt Q13114 (Q13114 whole entry): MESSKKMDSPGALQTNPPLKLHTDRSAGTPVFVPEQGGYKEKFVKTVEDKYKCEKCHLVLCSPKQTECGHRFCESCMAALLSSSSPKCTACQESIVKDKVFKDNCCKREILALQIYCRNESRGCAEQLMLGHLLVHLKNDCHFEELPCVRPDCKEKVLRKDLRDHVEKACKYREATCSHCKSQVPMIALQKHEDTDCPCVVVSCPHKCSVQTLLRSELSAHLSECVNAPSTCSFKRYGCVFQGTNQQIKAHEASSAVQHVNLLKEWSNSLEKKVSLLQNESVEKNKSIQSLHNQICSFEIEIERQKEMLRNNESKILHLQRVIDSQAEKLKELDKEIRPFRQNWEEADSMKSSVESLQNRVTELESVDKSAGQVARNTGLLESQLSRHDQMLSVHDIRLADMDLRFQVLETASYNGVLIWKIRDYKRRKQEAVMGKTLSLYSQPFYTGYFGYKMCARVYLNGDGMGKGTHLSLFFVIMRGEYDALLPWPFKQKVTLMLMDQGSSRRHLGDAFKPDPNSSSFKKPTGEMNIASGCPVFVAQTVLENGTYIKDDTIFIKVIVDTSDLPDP

“HA-NS1/126-225 (C-terminal effector domain fragment of H5N1/HM NS1) (domain or fragment)” had a fold decrease of the MAVS-TRAF3 co-precipitate of 4.6 fold.
For “HA-NS1 (wild-type NS1 of H5N1/HM) (natural protein)” the value was 8.5 fold.
